Where two headings read alike, the source gives them in different places.

Here are results for five compounds from US10202469B2, “Sugar chain-attached linker, compound containing sugar chain-attached linker and physiologically active substance or salt thereof, and method for producing same” (Glytech, Inc., priority 2012, dated 2019).

Data set [1] concerns cytotoxic T lymphocyte (CTL). The following applies: cited from earlier work.
The nature of data set [2]: Tracing of hydrolysis behavior in aqueous solution by HPLC (hydrolysis half-life). On the procedure: […] A given amount of each solution was injected to HPLC at appropriate time intervals to trace the hydrolysis reaction. The relative starting material concentration was determined from an HPLC peak area corresponding to the starting material. The relative concentration of the starting material was plotted against incubation time. […] Also, the terminal half-life t1/2 of the starting material was calculated according to the expression t1/2=ln(2)/k (wherein k represents the slope of the linear plot).

A short description of data set [3]: Solubility measurement in water (absorbance of supernatant at 280 nm). The settings on record: 25° C.
Method: (§1) After the centrifugation, the absorbance of the supernatant portion at 280 nm was measured in the microtube. From the obtained value, the concentration was calculated to determine solubility.
For data set [4] the following is noted: Solubility (μM).
Method: as §1
For data set [5] the following is noted: Solubility (μM). This is another data set of the same source.
Method: as §1
Data set [6] in a line: Solubility measurement in 0.1% aqueous acetic acid (AcOH) solution. The settings on record: aqueous acetic acid solution (0.1% AcOH).
Method: as §1
Setting [7] is: buffer, pH 4, Hydrolysis half-life, Acetate buffer solution (pH 4.0), 25° C.
Where [8] appears, read: buffer, pH 4, Hydrolysis half-life, Acetate buffer solution (pH 4.0), 37° C.
Setting [9] is: buffer, pH 7.4, Hydrolysis half-life, PBS (pH 7.4), 25° C.
The mark [10] stands for this setting: buffer, pH 7.4, Hydrolysis half-life, PBS (pH 7.4), 37° C.

Consider `CC(C)C[C@H](NC(=O)[C@H](CC(C)C)NC(=O)[C@H](C)NC(=O)[C@H](CC(C)C)NC(=O)[C@H](CC(C)C)NC(=O)[C@H](CC(C)C)NC(=O)CNC(=O)[C@H](Cc1c[nH]c2ccccc12)NC(=O)[C@@H](N)CCCNC(=N)N)C(=O)O` [compound 10], for which the “Ability to induce cytotoxic T lymphocyte (CTL)” value in data set [1] is reported as “exhibits the ability to induce cytotoxic T lymphocyte (CTL)”.
Usually half-life stands for the time in which the quantity being followed falls by half. Read a low half-life as rapid decline. A word on the solubility: it is the dissolved amount per volume that the medium holds. A low value points to little dissolved substance. Turning to `CC(=O)N[C@@H]1[C@@H](O)[C@H](O[C@@H]2O[C@H](CO)[C@@H](O[C@@H]3O[C@H](CO[C@H]4O[C@H](CO)[C@@H](O)[C@H](O)[C@@H]4O[C@@H]4O[C@H](CO)[C@@H](O[C@@H]5O[C@H](CO)[C@H](O)[C@H](O)[C@H]5O)[C@H](O)[C@H]4NC(C)=O)[C@@H](O)[C@H](O[C@H]4O[C@H](CO)[C@@H](O)[C@H](O)[C@@H]4O[C@@H]4O[C@H](CO)[C@@H](O[C@@H]5O[C@H](CO)[C@H](O)[C@H](O)[C@H]5O)[C@H](O)[C@H]4NC(C)=O)[C@@H]3O)[C@H](O)[C@H]2NC(C)=O)[C@@H](CO)O[C@H]1NC(=O)CSCCSC(=O)[C@H](CC(C)C)NC(=O)[C@H](CC(C)C)NC(=O)[C@H](C)NC(=O)[C@H](CC(C)C)NC(=O)[C@H](CC(C)C)NC(=O)[C@H](CC(C)C)NC(=O)CNC(=O)[C@H](Cc1c[nH]c2ccccc12)NC(=O)[C@@H](N)CCCNC(=N)N` [compound 20], the half-life in data set [2] (setting [7]) is above 30 days; in data set [2] (setting [8]), 24 days; in data set [2] (buffer, pH 7.4, Hydrolysis half-life, PBS (pH 7.4), 4° C.), 9.6 days; in data set [2] (setting [9]) it was 5 days; in data set [2] (setting [10]), 1.33 days. Besides, the figures for the solubility at 15 min in data set [3] (Solubility (mg/mL)) and in data set [3] (Solubility (μM)) were at least 77.4 mg/mL and above 28000 µM, respectively.
For `CC(=O)N[C@@H]1[C@@H](O)[C@H](O[C@@H]2O[C@H](CO)[C@@H](O[C@@H]3O[C@H](CO[C@H]4O[C@H](CO)[C@@H](O)[C@H](O)[C@@H]4O[C@@H]4O[C@H](CO)[C@@H](O[C@@H]5O[C@H](CO)[C@H](O)[C@H](O)[C@H]5O)[C@H](O)[C@H]4NC(C)=O)[C@@H](O)[C@H](O[C@H]4O[C@H](CO)[C@@H](O)[C@H](O)[C@@H]4O[C@@H]4O[C@H](CO)[C@@H](O[C@@H]5O[C@H](CO)[C@H](O)[C@H](O)[C@H]5O)[C@H](O)[C@H]4NC(C)=O)[C@@H]3O)[C@H](O)[C@H]2NC(C)=O)[C@@H](CO)O[C@H]1NC(=O)CSCC(NC(=O)c1ccc(COC(=O)[C@H](CC(C)C)NC(=O)[C@H](CC(C)C)NC(=O)[C@H](C)NC(=O)[C@H](CC(C)C)NC(=O)[C@H](CC(C)C)NC(=O)[C@H](CC(C)C)NC(=O)CNC(=O)[C@H](Cc2c[nH]c3ccccc23)NC(=O)[C@@H](N)CCCNC(=N)N)cc1)C(N)=O` (stereo partly drawn) [compound 1], the Hydrolysis half-life in data set [2] (buffer, pH 4) is above 30 days; in data set [2] (buffer, pH 7.4), 6.08 days. Moreover, the half-life is above 30 days in data set [2] (buffer, pH 4, Hydrolysis half-life) and 3.25 days in data set [2] (buffer, pH 7.4, Hydrolysis half-life). In addition, the values for the solubility at 15 min in data set [4] and in data set [5] were above 37000 µM and above 41000 µM, respectively.
Regarding `CC(=O)N[C@@H]1[C@@H](O)[C@H](O[C@@H]2O[C@H](CO)[C@@H](O[C@@H]3O[C@H](CO[C@H]4O[C@H](CO)[C@@H](O)[C@H](O)[C@@H]4O[C@@H]4O[C@H](CO)[C@@H](O[C@@H]5O[C@H](CO[C@]6(C(=O)O)C[C@H](O)[C@@H](NC(C)=O)[C@H]([C@H](O)[C@H](O)CO)O6)[C@H](O)[C@H](O)[C@H]5O)[C@H](O)[C@H]4NC(C)=O)[C@@H](O)[C@H](O[C@H]4O[C@H](CO)[C@@H](O)[C@H](O)[C@@H]4O[C@@H]4O[C@H](CO)[C@@H](O[C@@H]5O[C@H](CO[C@]6(C(=O)O)C[C@H](O)[C@@H](NC(C)=O)[C@H]([C@H](O)[C@H](O)CO)O6)[C@H](O)[C@H](O)[C@H]5O)[C@H](O)[C@H]4NC(C)=O)[C@@H]3O)[C@H](O)[C@H]2NC(C)=O)[C@@H](CO)O[C@H]1NC(=O)CSC[C@H](NC(=O)c1ccc(COC(=O)[C@H](CC(C)C)NC(=O)[C@H](CC(C)C)NC(=O)[C@H](C)NC(=O)[C@H](CC(C)C)NC(=O)[C@H](CC(C)C)NC(=O)[C@H](CC(C)C)NC(=O)CNC(=O)[C@H](Cc2c[nH]c3ccccc23)NC(=O)[C@@H](N)CCCNC(=N)N)cc1)C(N)=O` [compound 8], the half-life was above 30 days in data set [2] (setting [7]), above 30 days in data set [2] (setting [8]), 5.04 days in data set [2] (setting [9]) and 4.42 days in data set [2] (setting [10]). Besides, the solubility at 15 min is at least 121 mg/mL in data set [3] (Solubility (mg/mL)), above 47000 µM in data set [3] (Solubility (μM)), at least 104 mg/mL in data set [6] (Solubility (mg/mL)) and above 34000 µM in data set [6] (Solubility (μM)).
For `CC(=O)N[C@@H]1[C@@H](O)[C@H](O[C@@H]2O[C@H](CO)[C@@H](O[C@@H]3O[C@H](CO[C@H]4O[C@H](CO)[C@@H](O)[C@H](O)[C@@H]4O[C@@H]4O[C@H](CO)[C@@H](O[C@@H]5O[C@H](CO)[C@H](O)[C@H](O)[C@H]5O)[C@H](O)[C@H]4NC(C)=O)[C@@H](O)[C@H](O[C@H]4O[C@H](CO)[C@@H](O)[C@H](O)[C@@H]4O[C@@H]4O[C@H](CO)[C@@H](O[C@@H]5O[C@H](CO)[C@H](O)[C@H](O)[C@H]5O)[C@H](O)[C@H]4NC(C)=O)[C@@H]3O)[C@H](O)[C@H]2NC(C)=O)[C@@H](CO)O[C@H]1NC(=O)C[C@H](NC(=O)Cc1ccc(SC(=O)[C@H](CC(C)C)NC(=O)[C@H](CC(C)C)NC(=O)[C@H](C)NC(=O)[C@H](CC(C)C)NC(=O)[C@H](CC(C)C)NC(=O)[C@H](CC(C)C)NC(=O)CNC(=O)[C@H](Cc2c[nH]c3ccccc23)NC(=O)[C@@H](N)CCCNC(=N)N)cc1)C(=O)NCC(N)=O` [compound 21], the half-life is 2.75 days in data set [2] (PBS, pH 7.4, Hydrolysis half-life, PBS (pH 7.4), 4° C.); 1.04 days in data set [2] (PBS, pH 7.4, Hydrolysis half-life, PBS (pH 7.4), 25° C.); 0.167 days in data set [2] (PBS, pH 7.4, Hydrolysis half-life, PBS (pH 7.4), 37° C.); 19 days in data set [2] (acetate buffer solution, pH 4, Hydrolysis half-life, Acetate buffer solution (pH 4.0), 25° C.); 10 days in data set [2] (acetate buffer solution, pH 4, Hydrolysis half-life, Acetate buffer solution (pH 4.0), 37° C.). In addition, the “Hydrolysis product found by HPLC analysis” value in data set [2] (after hydrolysis test in buffer solution) is reported as “production of the unmodified HER2(8-16) peptide (compound 10) was confirmed”. In addition, the solubility at 15 min was at least 76.7 mg/mL in data set [3] (water, Solubility (mg/mL)) and above 26000 µM in data set [3] (water, Solubility (μM)).
